Assay results: patent US20180009879A1

What was measured:
[1] = target: HSV-1 (HF strain, VR-260 ATCC): unidentified viral antigen on virions or infected VERO-E6 cells (Herpes simplex virus 1); assay: cell-based or functional assay
[2] = target: HSV-2 (MS strain, VR-540 ATCC): unidentified viral antigen on virions or infected VERO-E6 cells (Herpes simplex virus 2); assay: cell-based or functional assay

concentration reducing HSV cytopathic effect by 50% (IIF assay) [1]: < 5 µg/mL
concentration reducing HSV cytopathic effect by 50% (IIF assay) [2]: < 5 µg/mL
B1: Fab Ex2 (IgG1 Fab format) (Fab, V domains shown)
VH: LESGGGVVQPGRSLRLSCAASGFTFTTFAMHWVRQAPGKGLEWLAFISYDGSNKYYADSVKGRFTISRDNSKNTLYLQMNSLRAEDTSIYYCAREVWNYADYWGQGALVTVSS
VL: ELTQSPGTLSSSPGHRATLSCKASAPLGSNHMAWYQQKPGQAPRLLIYGASTRATGVPARFTGSGSGTDFTLTISSLQPEDFATYYCQQANSFPRTFGQGTKVEIK
